Experimental data published in publication PMC13036776, “Structural and Kinetic Basis for the Rational Design of Next-Generation β‑Lactamase Inhibitors” (Journal of Medicinal Chemistry, 2026).

System: O=C(Cc1cccs1)N[C@@H]1C(=O)N2C(C(=O)O)=C(/C=C/c3ccc([N+](=O)[O-])cc3[N+](=O)[O-])CS[C@H]12
Test: purified protein
Assay type: biochemical, Pseudomonas aeruginosa
Conditions: active site, catalytic S64 acylation (acyl-enzyme), pH 7.2

Substance	Km (general base K67, R349 anchor) [µM]	Vmax (general base K67, R349 anchor) [µM/min]	kcat (general base K67, R349 anchor) [s⁻¹]	kcat/Km (general base K67, R349 anchor) [M⁻¹ s⁻¹]	Km (general base K67) [µM]	Vmax (general base K67) [µM/min]	kcat (general base K67) [s⁻¹]	kcat/Km (general base K67) [M⁻¹ s⁻¹]
PDC-3 (Pseudomonas-derived cephalosporinase-3, class C β-lactamase AmpC) (Pseudomonas aeruginosa PAO1)	28 ± 1	82.2	152 ± 15	5.4e+06 ± 500000				
PDC-3 (Pseudomonas-derived cephalosporinase-3, class C β-lactamase AmpC) (Pseudomonas aeruginosa PAO1; R376A/T105A)					10.1 ± 1.5	55.8	85 ± 3	8.4e+06 ± 1.3e+06
